Source: article PMC4784309, “Substrate specificity and function of acetylpolyamine amidohydrolases from Pseudomonas aeruginosa” (BMC Biochemistry, 2016)

B1: PA3774 (Pseudomonas aeruginosa PAO1) (protein)
chain: MTRRTAFFFDELCLWHAAGPHALTLPVGGWVQPPAAAGHAESPETKRRLKSLLDVSGLTARLQLRSAPPASDEDLLRVHPAHYLERFKALSDAGGGSLGQDAPIGPGSYEIARLSAGLAIAALDAVLAGEADNAYSLSRPPGHHCLPDQAMGFCFFANIAVAIEAAKARHGVERVAVLDWDVHHGNGTQAIYYRRDDVLSISLHQDGCFPPGYSGAEDIGEDRGRGFNLNVPLLPGGGHDAYMQAMQRIVLPALERFRPQLIVVASGFDANAVDPLARMQLHSDSFRAMTAMVRDAAERHAGGRLVVVHEGGYSEAYVPFCGLAVIEELSGVRSAVRDPLRDFIELQQPNAAFRDFQRQRLEELAAQFGLCPAQPLQAAR
B2: PA0321 (Pseudomonas aeruginosa PAO1) (protein)
chain: MLTIYSDDHRLHHGRHELIGGQFTPCFEKPSRADMVLDRVKAVGLGEVRAPRDFGLEPIRRVHSEGFVRFLQNAWQDWLATGRSHDMLPIAWPTRRLRQTEPDNIDGRLGYYSFDAGAPITAGTWQAITSSANVALSGQSELANGARSVFSLCRPPGHHAAADYMGGYCFFNNAAIAAQAFLDRGAGRVAILDVDYHHGNGTQDIFYDRADVLFTSIHGDPRFEYPYFLGYADEKGNGVGTGYNFNYPLAAGSDWATWSQALQAAIRQIQAYAADALIVSLGVDTFKEDPISQFRLDSPDYLRMGEAIGKLGLATLFVMEGGYAVEEIGINAVNVLQGFEGVHR
notes: recombinant, E. coli expressed, produced as described before [30]
B3: PA1409 (Pseudomonas aeruginosa PAO1) (protein)
chain: MLSVYSDDHRLHFGQSELVDGKLQPCFEMPSRADTVLARVKSQNLGEVIAPKDFGREPLLRLHDAAYLDFLQGAWARWTAEGHSGDLVSTTFPGRRLRRDGPIPTALMGELGYYSFDTEAPITAGTWQAIYSSAQVALTAQEHMRQGARSAFALCRPPGHHAGGDFMGGYCFLNNAAIATQAFLDQGARRVAILDVDYHHGNGTQDIFYRRDDVLFASIHGDPRVEYPYFLGYADERGEGAGEGCNHNYPLAHGSGWDLWSAALDDACVRIAGYAPDALVISLGVDTYKEDPISQFRLDSPDYLRMGERIARLGLPTLFIMEGGYAVEAIGINAVNVLQGYEGAAR
notes: as for B2

What was measured:
[1] = test system: CC(=O)NCCCC[C@H](NC(=O)OC(C)(C)C)C(=O)Nc1ccc2c(C)cc(=O)oc2c1; test: purified protein; settings: pH 8, 30 °C, 20 mM Tris-HCl, 50 mM NaCl
[2] = test system: Cc1cc(=O)oc2cc(NC(=O)[C@H](CCCCNC(=O)C(F)(F)F)NC(=O)OC(C)(C)C)ccc12; test: purified protein; settings: pH 8, 30 °C, 20 mM Tris-HCl, 50 mM NaCl
purified protein = substrate: Cc1cc(=O)oc2cc(NC(=O)[C@H](CCCCNC(=O)C(F)(F)F)NC(=O)OC(C)(C)C)ccc12; test: purified protein; settings: pH 8, 30 °C, 20 mM Tris-HCl, 50 mM NaCl; remark: listed apart in the source
[3] = substrate: CC(=O)NCCCCCN; test: diamine oxidase coupled colorimetric assay; format: biochemical, Pseudomonas aeruginosa; settings: pH 7.4, 21 °C, 100 mM HEPES
Text: (§1) diamine oxidase coupled colorimetric assay on PA0321

[4] = substrate: CC(=O)NCCCCN; test: diamine oxidase coupled colorimetric assay; format: biochemical, Pseudomonas aeruginosa; settings: pH 7.4, 21 °C, 100 mM HEPES
Text: as §1

[5] = substrate: CC(=O)NCCCCCN; test: diamine oxidase coupled colorimetric assay; format: biochemical, Pseudomonas aeruginosa; settings: pH 7.4, 21 °C, 100 mM HEPES; remark: listed apart in the source
Text: (§2) diamine oxidase coupled colorimetric assay on PA1409

[6] = substrate: CC(=O)NCCCCN; test: diamine oxidase coupled colorimetric assay; format: biochemical, Pseudomonas aeruginosa; settings: pH 7.4, 21 °C, 100 mM HEPES; remark: listed apart in the source
Text: as §2

Row | Molecule | Km [1] | Km (purified protein) | also measured
1 | HDAH (Alcaligenaceae bacterium FB188) | 26 ± 4 µM |  | Vmax [1]: 0.0258 µmol/min/mg; Km [2]: 7.2 ± 1.1 µM; Vmax [2]: 0.0138 µmol/min/mg
2 | PA0321 (Pseudomonas aeruginosa PAO1) | 22 ± 10 µM |  | 
3 | PA1409 (Pseudomonas aeruginosa PAO1) | 223 ± 12 µM |  | 
4 | PA3774 (Pseudomonas aeruginosa PAO1) | 95 ± 7 µM |  | 
5 | B1 |  | 21 ± 2 µM | 
6 | B2 |  | 11 ± 1 µM | Km [3]: 284 ± 39 µM; Km [4]: 411 ± 34 µM
7 | B3 |  | 84 ± 15 µM | Km [5]: 465 ± 53 µM; Km [6]: 503 ± 60 µM
